For data set [1], the target named is CapW from Rhizobium leguminosarum (Rhizobium leguminosarum). Briefly: crystal structure.
Data set [2] addresses T1, Ec CapW R200A (Escherichia coli upec-117, UniProt P0DX76 1-299, R200A).
T1 sequence: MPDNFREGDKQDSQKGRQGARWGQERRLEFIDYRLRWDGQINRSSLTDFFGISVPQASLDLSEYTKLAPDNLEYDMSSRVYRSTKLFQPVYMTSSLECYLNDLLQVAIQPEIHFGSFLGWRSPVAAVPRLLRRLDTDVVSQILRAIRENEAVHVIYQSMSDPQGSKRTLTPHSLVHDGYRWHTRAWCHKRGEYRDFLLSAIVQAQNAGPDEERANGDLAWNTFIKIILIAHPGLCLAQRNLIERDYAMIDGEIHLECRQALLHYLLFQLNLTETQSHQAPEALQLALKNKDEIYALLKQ
Briefly: fluorescence polarization. (Polarisation of emitted light reports the rotation of a fluorescent probe.)

Data set [3] has as its target T2, Ec CapW S158E (Escherichia coli upec-117, UniProt P0DX76 1-299, S158E).
T2 sequence: T1 sequence with S158E, A200R
Put plainly: fluorescence polarization.

A further data set deals with T3, Rl CapW WT (Rhizobium leguminosarum, UniProt PDB:9C5G_1 1-299).
T3 sequence: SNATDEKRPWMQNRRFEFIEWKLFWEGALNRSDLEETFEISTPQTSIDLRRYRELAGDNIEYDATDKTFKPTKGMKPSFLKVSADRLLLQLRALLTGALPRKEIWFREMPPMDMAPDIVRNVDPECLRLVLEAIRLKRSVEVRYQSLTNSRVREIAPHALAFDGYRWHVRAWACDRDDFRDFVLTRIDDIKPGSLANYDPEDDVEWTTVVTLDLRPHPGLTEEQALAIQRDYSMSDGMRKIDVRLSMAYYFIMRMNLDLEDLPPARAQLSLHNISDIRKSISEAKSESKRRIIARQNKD
Put plainly: X-ray crystallography.

Data set [4] has as its target T1, Ec CapW R200A. Briefly: fluorescence polarization. This is another data set of the same source.
The target of data set [5] is T2, Ec CapW S158E. Put plainly: fluorescence polarization. The source holds these as a separate data set.
Another data set deals with T4, Ec CapW WT (Escherichia coli upec-117, UniProt P0DX76 1-299).
T4 sequence: T1 sequence with A200R
Briefly: fluorescence polarization.

Numbering of substitutions follows the chain as printed. Read-outs that look alike come from different tables or passages of the source.

Broadly, the stoichiometry N is the number of molecules, sites or subunits per partner or assembly.

As for “CapW from Rhizobium leguminosarum (natural protein)”, in data set [1], the stoichiometry N is 2.

As to TTTTTTT (ssDNA) [7mer poly-T, FAM], the binding result with Ec CapW R200A [2] and with Ec CapW S158E [3] was “no binding” each time.

As to TTTTTTT (ssDNA) [7mer poly-T, unlabeled], the binding result with Rl CapW WT is given as “binds”.

B1: CapW 30 bp palindromic binding site (dsDNA)
DNA 1: TAAAAACTGATCGTATAATAATGCTACGCT
DNA 2: AGCGTAGCATTATTATACGATCAGTTTTTA
B1: the binding result with Ec CapW R200A [4] and with Ec CapW S158E [5] was “binds” in each case.

On to UUUUUUU (ssRNA) [7mer poly-U RNA], for which, in the data set with Ec CapW WT, the binding result was “no binding”.

For AAAAAAA (ssDNA) [7mer poly-A], the binding result with Ec CapW WT is recorded as “no binding”.

These data come from publication PMC11662680.
